In the supplement of paper PMC9233669:
Variants at the floor of the assay were thinned out.

Experiments:
biotinyl-Ile-oxazolone = test: self-aminoacylation, catalytic enhancement (BIO) (fold over background); higher = more active; k-Seq, kA / k0A0; sequences stand for … in GGGAAUGGAUCCACAUCUACGAAUUC…UUCACUGCAGACUUGACGAAGCUG
In short: (§1)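 Mutagenized RNA pools with a 21-nt variable region (0.43 μM) reacted with each biotinyl-aminoacyl-oxazolone at 2–1250 μM. Reactions ran in 50 μL HEPES/NaCl/KCl/MgCl2/CaCl2 buffer with 5% acetonitrile, pH 6.9–7.0, for 90 minutes at room temperature. Streptavidin-captured RNA was quantified by triplicate qPCR and Illumina sequencing, and per-sequence fraction reacted was fit to a pseudo-first-order model with 1000 bootstraps. Catalytic enhancement is median kA divided by the uncatalyzed rate, the low-activity peak of a bimodal Gaussian fit.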

biotinyl-Met-oxazolone = test: self-aminoacylation, catalytic enhancement (BMO) (fold over background); higher = more active; k-Seq, kA / k0A0; sequences stand for … in GGGAAUGGAUCCACAUCUACGAAUUC…UUCACUGCAGACUUGACGAAGCUG
In short: as §1

biotinyl-Leu-oxazolone = test: self-aminoacylation, catalytic enhancement (BLO) (fold over background); higher = more active; k-Seq, kA / k0A0; sequences stand for … in GGGAAUGGAUCCACAUCUACGAAUUC…UUCACUGCAGACUUGACGAAGCUG
In short: as §1

biotinyl-Val-oxazolone = test: self-aminoacylation, catalytic enhancement (BVO) (fold over background); higher = more active; k-Seq, kA / k0A0; sequences stand for … in GGGAAUGGAUCCACAUCUACGAAUUC…UUCACUGCAGACUUGACGAAGCUG
In short: as §1

biotinyl-Trp-oxazolone = test: self-aminoacylation, catalytic enhancement (BWO) (fold over background); higher = more active; k-Seq, kA / k0A0; sequences stand for … in GGGAAUGGAUCCACAUCUACGAAUUC…UUCACUGCAGACUUGACGAAGCUG
In short: as §1

biotinyl-Phe-oxazolone = test: self-aminoacylation, catalytic enhancement (BFO) (fold over background); higher = more active; k-Seq, kA / k0A0; sequences stand for … in GGGAAUGGAUCCACAUCUACGAAUUC…UUCACUGCAGACUUGACGAAGCUG
In short: as §1

Row | Sequence | self-aminoacylation (biotinyl-Ile-oxazolone) | self-aminoacylation (biotinyl-Met-oxazolone) | self-aminoacylation (biotinyl-Leu-oxazolone) | self-aminoacylation (biotinyl-Val-oxazolone) | self-aminoacylation (biotinyl-Trp-oxazolone) | self-aminoacylation (biotinyl-Phe-oxazolone)
1 | CUACUACAAACAAUCGGACUG [Fam1A.1 aminoacylation ribozyme variant] | 0.852 | 0.695 | 0.582 | 0.769 | 0.469 | 0.703
2 | AUUCACCUAGGUCUUUGGGUG [Fam2.2 aminoacylation ribozyme variant] | 4.28 | 6.91 | 9.98 | 4.09 | 6.83 | 56.1
3 | AGUACCCUCGUCAUCGAGUGA [Fam2.1 aminoacylation ribozyme variant] | 2.37 | 3.19 | 3.97 | 2.08 | 3.06 | 18.8
4 | AUACUUCAAACAGUCGGUCUG [Fam1A.1 aminoacylation ribozyme variant] | 0.876 | 0.965 | 0.996 | 0.699 | 0.831 | 0.584
5 | AGGUUUGCUAGUAGUCGCAAG [Fam3.1 aminoacylation ribozyme variant] | 0.918 | 0.787 | 0.945 | 0.894 | 0.88 | 1.49
6 | CCACACUUCAAGCAAUCGCAC [Fam1B.1 aminoacylation ribozyme variant] | 0.76 | 0.814 | 0.465 | 0.889 | 0.672 | 0.785
7 | ACUCACCUAGGCCAUCGGGUG [Fam2.2 aminoacylation ribozyme variant] | 4.74 | 4.87 | 5.87 | 6.46 | 5.91 | 34.2
8 | CCACACUUCAAGCAAUCUGCC [Fam1B.1 aminoacylation ribozyme variant] | 0.806 | 1.3 | 0.787 | 1.05 | 0.628 | 0.603
9 | AUAACCCUGGCCAUCGAGUGA [Fam2.1 aminoacylation ribozyme variant] | 3.35 | 4.48 | 2.71 | 2.09 | 3.57 | 11.4
10 | AUUCAACUAGGUCAUCGGAUG [Fam2.2 aminoacylation ribozyme variant] | 0.675 | 0.66 | 0.772 | 0.708 | 0.549 | 0.801
11 | CUUCUACAAACAAUCGGUCUG [Fam1A.1 aminoacylation ribozyme variant] | 0.694 | 0.763 | 0.623 | 0.831 | 0.564 | 0.956
12 | CUACUUAAAACAAUCCGUCUG [Fam1A.1 aminoacylation ribozyme variant] | 0.799 | 0.876 | 0.756 | 0.905 | 0.547 | 0.461
13 | AUUCAUCUAGGUCUUCGGGUG [Fam2.2 aminoacylation ribozyme variant] | 3.75 | 4.49 | 6.24 | 3.66 | 4.84 | 37.4
14 | AUUCACCUAGGUCAUCGUGUU [Fam2.2 aminoacylation ribozyme variant] | 0.899 | 0.887 | 0.905 | 0.73 | 1.62 | 0.729
15 | CUACUUCAAACUAUUGGUCUG [Fam1A.1 aminoacylation ribozyme variant] | 0.995 | 0.897 | 0.92 | 0.869 | 0.501 | 0.825
16 | AUGCACCUAGGUCGUCGGGUG [Fam2.2 aminoacylation ribozyme variant] | 1.68 | 1.75 | 2.42 | 1.8 | 2.39 | 8.26
17 | AUUCACCUACGUCAUCGGGCG [Fam2.2 aminoacylation ribozyme variant] | 2.62 | 3.42 | 3.26 | 2.97 | 2.75 | 16.3
18 | CCACACUUCAAGCAAUAGGCC [Fam1B.1 aminoacylation ribozyme variant] | 0.939 | 0.9 | 1.05 | 1.04 | 0.71 | 0.88
19 | AUACACCUAGGUUAUCGGGUG [Fam2.2 aminoacylation ribozyme variant] | 2.73 | 3.19 | 2.99 | 2.95 | 4.77 | 19.1
20 | AUUACCCUGGUCAACUAGUGA [Fam2.1 aminoacylation ribozyme variant] | 3.93 | 8.64 | 6.83 | 4.39 | 9.81 | 24.9
21 | AUCCACCUAGGUAAUCGGGUG [Fam2.2 aminoacylation ribozyme variant] | 3 | 3.45 | 4.49 | 3.1 | 5.34 | 27.6

Row | Sequence | self-aminoacylation (biotinyl-Ile-oxazolone) | self-aminoacylation (biotinyl-Met-oxazolone) | self-aminoacylation (biotinyl-Leu-oxazolone) | self-aminoacylation (biotinyl-Val-oxazolone) | self-aminoacylation (biotinyl-Trp-oxazolone) | self-aminoacylation (biotinyl-Phe-oxazolone)
22 | AAUCACAUAGGUCAUCGGGUG [Fam2.2 aminoacylation ribozyme variant] | 4.88 | 7.73 | 7.16 | 4.18 | 6.45 | 49.2
23 | AUUACCCUGGUGUUCGAGUGA [Fam2.1 aminoacylation ribozyme variant] | 2.73 | 5.65 | 6.71 | 3.21 | 7.61 | 45.5
24 | UUUCACCUAGAUCAUCGGGUG [Fam2.2 aminoacylation ribozyme variant] | 2.35 | 2.58 | 2.82 | 2.58 | 3.04 | 16.5
25 | CUACUUCAGCCAAUCGGUCUG [Fam1A.1 aminoacylation ribozyme variant] | 0.691 | 0.713 | 0.842 | 0.673 | 0.425 | 0.64
26 | CUACUUCAAACAUUCGGUUUG [Fam1A.1 aminoacylation ribozyme variant] | 1.17 | 1.05 | 0.962 | 1.2 | 1.43 | 0.613
27 | AUUACCCUGGUCCUCGAGUGC [Fam2.1 aminoacylation ribozyme variant] | 0.969 | 0.658 | 1.07 | 1.06 | 1.31 | 2.51
28 | AAGUUUUCUAAUAGUCGGAAG [Fam3.1 aminoacylation ribozyme variant] | 1.44 | 1.25 | 1.14 | 1.31 | 1.21 | 1.99
29 | CCACACUCCAAGCAAUCGGAC [Fam1B.1 aminoacylation ribozyme variant] | 1.09 | 0.74 | 1.37 | 0.937 | 0.574 | 0.729
30 | GUACUUCAAACACUCGGUCUG [Fam1A.1 aminoacylation ribozyme variant] | 1.5 | 1.31 | 1.64 | 1.3 | 1.91 | 5.9
31 | AAGUUUGCUAAUAGCAGCAAG [Fam3.1 aminoacylation ribozyme variant] | 0.793 | 0.683 | 0.646 | 0.851 | 0.754 | 1.12
32 | AUUCACCUAGGUCAUGGGGUC [Fam2.2 aminoacylation ribozyme variant] | 1.32 | 1.39 | 1.2 | 1.4 | 1 | 1.36
33 | AUUACCCUGGUAAUCUAGUGA [Fam2.1 aminoacylation ribozyme variant] | 5.57 | 13 | 12.4 | 5.92 | 15.9 | 86.4
34 | AUUACCCUAGUCAUCGAGUGU [Fam2.1 aminoacylation ribozyme variant] | 1.95 | 2.47 | 2.55 | 1.95 | 2.62 | 6.11
35 | AUUCACCUGGGGCAUCGGGUG [Fam2.2 aminoacylation ribozyme variant] | 4.42 | 5.8 | 5.93 | 6.59 | 7.38 | 36.1
36 | AAGUUUGCUAAAAGUCGCAAC [Fam3.1 aminoacylation ribozyme variant] | 1.08 | 1.1 | 1.25 | 0.948 | 1.01 | 0.796
37 | GUUACCCUAGUCAUCGAGUGA [Fam2.1 aminoacylation ribozyme variant] | 3.81 | 6.66 | 6.93 | 3.33 | 7.77 | 28.1
38 | UGUCACCUAGGUCAUCGGGUG [Fam2.2 aminoacylation ribozyme variant] | 3.84 | 4.27 | 3.64 | 3.6 | 5.31 | 23.9
39 | AAGUUUUCUAAUAGUCGCAUG [Fam3.1 aminoacylation ribozyme variant] | 1.78 | 1.4 | 1.85 | 1.2 | 1.91 | 3.44
40 | AUUAACCGGGUCAUCGAGUGA [Fam2.1 aminoacylation ribozyme variant] | 3.38 | 6.03 | 7.07 | 3.29 | 7.04 | 36
41 | CCACUCUUCAAGUAAUCGGUC [Fam1B.1 aminoacylation ribozyme variant] | 0.854 | 0.823 | 0.969 | 1.08 | 3.88 | 4.71
42 | AUUCACCAAGGUCAUCCGGUG [Fam2.2 aminoacylation ribozyme variant] | 5.51 | 7.8 | 11.4 | 4.96 | 7.89 | 59.6
